# Biological target: integrin αIIbβ3 (wild type) (UniProt P08514)
substance,measurement,value
Syk truncation mutant (residues 1-330),adhesion dependent phosphorylation of Vav1,Over expression of Syk(1-330) also inhibited adhesion dependent phosphorylation of Vav1
